This is an account of results in article doi:10.1101/2020.07.03.182295 (bioRxiv, 2020).

The data set deals with the molecule itself. As to the kind of experiment: SEC.

B1: R54C αA-crystallin (recombinant human) (natural protein)
chain: MDVTIQHPWFKRTLGPFYPSRLFDQFFGEGLFEYDLLPFLSSTISPYYRQSLFCTVLDSGISEVRSDRDKFVIFLDVKHFSPEDLTVKVQDDFVEIHGKHNERQDDHGYISREFHRRYRLPSNVDQSALSCSLSADGMLTFCGPKIQTGLDATHAERAIPVSREEKPTSAPSS
Take B1: the binding result is listed as “binds”.
